Assay results reported in patent CN113512113A (THE FIRST AFFILIATED HOSPITAL COLLEGE OF MEDICINE ZHEJIANG …, dated 2021).

B1: SW-B1 (antibody, V domains shown)
VH: QVQLVQSGAEVKKPGASVKVSCTASGDTFTTYYMNWMRQAPGQGLEWMGIINPSGGSTSYAQKFQGRVTMTRDTSRSTVYMELSSLRSEDTAVYYCATPSLEEAEGGPQLAFDIWGQGTMVTVSS
VL: not shown
B2: CZ-D7 (antibody, V domains shown)
VH: QVQLVQSGAEVKTPGSSVKVSCKASGGSFSNYAISWVRQAPGQGLEWMGRIIATLGISNYAQKFQGRVTMTADKSTSTAYMELSSLRSEDTAVYYCASPITNFGVLIEVDAFHIWGQGTMVTVSS
VL: EIVLTQSPFTLSLSPGERATLSCGASQSVSSSYLAWYQQKPGLAPRLLIYDGSSRATDIPDRFSGSGSGTDFTLTISRLEPEDFAMYYCQQYSTSPLTFGGGTKVEIKR
B3: SW-A9 (antibody, V domains shown)
VH: QMQLVQSGPEVKKPGTSVKVSCKASGFTFTNSAMQWVRQARGQRLEWVGWIVVASGNANSARRFHDRVTITSDMSTSTAYLELSSLRSEDTAVYYCALNHCSNTTCLDGFDIWGQGTMVSVSS
VL: EIVLTQSPVTLSLSPGERATLSCRASQSVRNSLLAWYQQKPGQAPRLLIYAASSRATGIPDRFSGSGSGTDFTLTISRLEPEDFVVYYCQQHGSSPPWTFGQGTKVEFKR

Biological target: SARS-Cov-2的生物素化RBD(NC_045512) (SARS-CoV-2, UniProt P0DTC2 319-541)

Binder	Kd [nM]
B1	0.0943
B2	< 0.001
B3	< 0.001
